Target: T1, S-TNF, human TNFα fusion protein with an N-terminal S-Tag (human, UniProt P01375 77-233)
T1 construct: Made, expressed and purified by the applicants; not shown: 15 amino acid S-Tag peptide (Novagen)
Assay: indirect ELISA: sp55 from conditioned medium captured on Ni-NTA wells, S-TNF at 1 μg/mL, S-protein-HRP detection, absorbance at 370 nm

T1 sequence (P01375 77-233): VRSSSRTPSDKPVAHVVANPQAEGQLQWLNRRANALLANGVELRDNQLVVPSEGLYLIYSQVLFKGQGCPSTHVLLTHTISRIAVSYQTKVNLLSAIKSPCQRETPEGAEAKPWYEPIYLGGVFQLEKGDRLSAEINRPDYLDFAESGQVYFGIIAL

fold elevation in S-TNF binding over non-specific binding in control samples: 3 fold
B1: sp55, soluble TNF receptor p55: ecto-domain of human TNFR-1 (residues 30-211) with C-terminal myc and His6 tags (receptor)
chain: DAAQPARRAVRSLVPHLGDREKRDSVCPQGKYIHPQNNSICCTKCHKGTYLYNDCPGPGQDTDCRECESGSFTASENHLRHCLSCSKCRKEMGQVEISSCTVDRDTVCGCRKNQYRHYWSENLFQCFNCSLCLNGTVHLSCQEKQNTVCTCHAGFFLRENECVSCSNCKKSLECTKLCLPQIENVKGTEDSGTTRGGPEQKLISEEDLNSAVDHHHHHH
notes: Used as conditioned medium of transfected 293T cells; also called p55FL-myc-his; p55L

Source: WO2007030708A2 (dated 2007)
